Article PMC8258697 (The Journal of Biological Chemistry, 2021)
No end group written: not given here. *: point of attachment. Biotin = O=C1N[C@H]2[C@H](CS[C@H]2CCCCC(=O)*)N1

B1: biotinylated CBP-1 cofactor peptide (CREB-binding protein coactivator motif 1) (peptide)
peptide: Biotin-NLVPDAASKHKQLSELLRGGSGS
notes: coupled to Tb-streptavidin in the assay; also called CBP-1 peptide; CBP-derived peptide; source: bought: Eurogentec GmbH

What was measured:
Conditions in all cases: both partners purified
[1] = biological target: T1, label-free PPARγ LBD (human, UniProt P37231-1 234-505); experiment: AlphaScreen or HTRF; heterodimer coactivator recruitment; 100 nM label-free PPARγ LBD, 2 μM sGFP-RXRα LBD total mutant, 12 nM biotinylated CBP-1 on 12 nM Tb-SA; rosiglitazone titrated (also with 50 μM SR11237); 0.1% CHAPS, 1% DMSO, RT
T1 construct: PPARγ isoform 2 LBD, human, UniProt P37231-1, residues 234-505; also called PPARγ LBD without sGFP-tag; PPARγ LBD devoid of any label; source: E. coli T7 express, coexpressed with GroEL/ES, purified (Ni IMAC, TEV, reverse IMAC, SEC); not shown: His10, N-terminal, cleaved
T1 sequence (looked up): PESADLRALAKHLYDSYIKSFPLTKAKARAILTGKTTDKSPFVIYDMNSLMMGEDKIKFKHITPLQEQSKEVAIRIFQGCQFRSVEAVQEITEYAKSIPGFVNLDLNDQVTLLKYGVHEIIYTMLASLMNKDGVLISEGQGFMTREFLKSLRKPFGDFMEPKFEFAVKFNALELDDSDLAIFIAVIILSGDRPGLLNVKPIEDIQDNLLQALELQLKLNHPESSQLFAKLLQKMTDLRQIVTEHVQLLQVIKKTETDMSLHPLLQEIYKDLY

[2] = biological target: T2, sGFP-PPARγ LBD (human, UniProt P37231-1 234-505); experiment: AlphaScreen or HTRF; unlabeled RXRα total mutant LBD titrated (up to 8 μM) against 100 nM sGFP-PPARγ LBD, 12 nM Tb-SA, 12 nM biotinylated CBP-1; no ligand (or SR11237 at ≤1 nM)
T2 construct: PPARγ isoform 2 LBD, human, UniProt P37231-1, residues 234-505; also called PPARγ coupled to sGFP; source: E. coli T7 express, coexpressed with GroEL/ES, purified (Ni IMAC, TEV, reverse IMAC, SEC); not shown: His10, N-terminal, cleaved; sGFP, N-terminal, kept
T2 sequence (looked up): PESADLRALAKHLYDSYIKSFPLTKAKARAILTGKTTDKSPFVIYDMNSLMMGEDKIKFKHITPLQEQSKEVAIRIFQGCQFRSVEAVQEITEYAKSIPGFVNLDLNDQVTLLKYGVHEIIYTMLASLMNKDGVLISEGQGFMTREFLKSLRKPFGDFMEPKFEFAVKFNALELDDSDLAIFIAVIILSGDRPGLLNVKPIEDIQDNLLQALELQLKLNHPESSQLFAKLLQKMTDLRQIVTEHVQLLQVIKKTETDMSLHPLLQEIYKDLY

[3] = biological target: B1; experiment: as above

**Q.** Does B1 bind [1]?
**A.** Result: binds

B2: free RXRα total mutant LBD (unlabeled) (domain or fragment, human, UniProt P19793-1 223-462, looked up)
chain: TSSANEDMPVERILEAELAVEPKTETYVEANMGLNPSSPNDPVTNICQAADKQLFTLTEWAERIPHFSELPLDDQTILLRAGWNELLIASFSHRSIAVKDGILLATGLHVHRNSAHSAGVGAIFDRVLTELVSKMRDMQMDKTELGCLRAIVLFNPDSKGLSNPAEVEALREKVYASLEAYCKHKYPEQPGRFAKLLLRLPALRSIGLKCLEHLFFFKLIGDTPIDTYLMRMLEAPHQMT
notes: retinoid X receptor alpha (RXRα) LBD, human, residues 223-462 (pMal construct), five AF-2 mutations; also called unlabeled recruitment-incapable RXRα LBD (total mutant); unlabeled mutant RXRα LBD; source: E. coli T7 express, coexpressed with GroEL/ES, purified (Ni IMAC, MBP-TEV, amylose flow through, SEC); not shown: MBP, N-terminal, cleaved; His8, N-terminal, cleaved
**Q.** Does B2 bind [2]?
**A.** Result: binds

B3: sGFP-PPARγ LBD:RXRα total mutant LBD (unlabeled) heterodimer (complex, human)
chain 1: PESADLRALAKHLYDSYIKSFPLTKAKARAILTGKTTDKSPFVIYDMNSLMMGEDKIKFKHITPLQEQSKEVAIRIFQGCQFRSVEAVQEITEYAKSIPGFVNLDLNDQVTLLKYGVHEIIYTMLASLMNKDGVLISEGQGFMTREFLKSLRKPFGDFMEPKFEFAVKFNALELDDSDLAIFIAVIILSGDRPGLLNVKPIEDIQDNLLQALELQLKLNHPESSQLFAKLLQKMTDLRQIVTEHVQLLQVIKKTETDMSLHPLLQEIYKDLY
chain 2: TSSANEDMPVERILEAELAVEPKTETYVEANMGLNPSSPNDPVTNICQAADKQLFTLTEWAERIPHFSELPLDDQTILLRAGWNELLIASFSHRSIAVKDGILLATGLHVHRNSAHSAGVGAIFDRVLTELVSKMRDMQMDKTELGCLRAIVLFNPDSKGLSNPAEVEALREKVYASLEAYCKHKYPEQPGRFAKLLLRLPALRSIGLKCLEHLFFFKLIGDTPIDTYLMRMLEAPHQMT
notes: PPARγ isoform 2 LBD, human, UniProt P37231-1, residues 234-505; RXRα LBD, human, residues 223-462, five AF-2 mutations; also called LBD:LBD heterodimer with RXRα; source: mixed from the purified E. coli proteins (100 nM sGFP-PPARγ LBD, RXRα total mutant LBD titrated); not shown: His10, N-terminal, cleaved; sGFP, N-terminal, kept; MBP, N-terminal, cleaved; His8, N-terminal, cleaved
**Q.** With B3 as the binder, how does the “CBP-1 recruitment relative to that seen with rosiglitazone (%)” value [3] read?
**A.** Its value is no more than 5%.
